From patent US20190322765A1 (Hoffmann-La Roche, published 2019)
Where “and” joins values, the source holds several entries; their conditions need not be identical. Identical values can stand only once.

T1: murine IL-2R α-subunit, recombinant monomeric (murine, UniProt P01590 22-236, limits assumed)
T1 construct: also called Mu IL-2R α
T1 sequence (looked up): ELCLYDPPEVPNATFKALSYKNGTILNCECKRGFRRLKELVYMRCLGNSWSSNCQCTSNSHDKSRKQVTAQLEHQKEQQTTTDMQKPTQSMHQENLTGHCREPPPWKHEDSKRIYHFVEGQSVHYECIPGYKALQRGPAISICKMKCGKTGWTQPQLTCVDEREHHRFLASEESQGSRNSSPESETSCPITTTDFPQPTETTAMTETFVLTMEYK

T2: cynomolgus IL-2R α-subunit, recombinant monomeric (cynomolgus, UniProt H6WS54 22-240)
T2 construct: also called Cyno IL-2R α
T2 sequence: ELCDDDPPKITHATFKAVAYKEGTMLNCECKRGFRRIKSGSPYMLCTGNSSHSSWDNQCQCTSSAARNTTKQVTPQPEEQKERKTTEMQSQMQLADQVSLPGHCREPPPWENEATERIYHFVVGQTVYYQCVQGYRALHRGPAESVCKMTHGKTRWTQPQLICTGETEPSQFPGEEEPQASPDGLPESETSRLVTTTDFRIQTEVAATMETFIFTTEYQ

T3: human IL-2R α-subunit, monomeric, with AcTev cleavage site and Avi His tag (human)
T3 construct: also called Hu IL-2R α; CD25
T3 chain: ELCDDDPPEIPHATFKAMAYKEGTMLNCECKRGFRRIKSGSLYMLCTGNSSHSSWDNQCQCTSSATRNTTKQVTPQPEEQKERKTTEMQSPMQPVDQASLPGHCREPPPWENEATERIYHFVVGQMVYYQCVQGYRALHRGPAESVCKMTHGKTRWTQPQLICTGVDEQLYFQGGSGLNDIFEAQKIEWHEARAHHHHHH

T4: murine IL-2R βγ heterodimer (β knob γ hole Fc fusion) (murine, UniProt P16297 27-240; P34902 23-263)
T4 construct: also called Mu IL-2R βγ; mouse IL-2R βγ heterodimer; not shown: Fc knob/hole part
T4 sequence (looked up) 1: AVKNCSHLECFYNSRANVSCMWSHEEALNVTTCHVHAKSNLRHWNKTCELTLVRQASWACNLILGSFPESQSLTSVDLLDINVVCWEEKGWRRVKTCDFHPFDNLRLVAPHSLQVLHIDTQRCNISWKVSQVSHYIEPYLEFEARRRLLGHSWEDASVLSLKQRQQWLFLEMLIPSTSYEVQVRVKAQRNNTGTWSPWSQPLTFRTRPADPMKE
T4 sequence (looked up) 2: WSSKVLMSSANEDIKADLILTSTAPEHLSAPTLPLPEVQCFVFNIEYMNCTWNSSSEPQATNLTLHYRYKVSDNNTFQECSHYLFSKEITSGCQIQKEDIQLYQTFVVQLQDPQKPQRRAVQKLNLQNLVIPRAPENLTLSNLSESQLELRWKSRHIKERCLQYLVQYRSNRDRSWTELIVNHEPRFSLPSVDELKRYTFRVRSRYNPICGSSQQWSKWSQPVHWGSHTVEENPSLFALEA


Key:
[1] = target: T1, murine IL-2R α-subunit, recombinant …; test: SPR, receptor on CM5, 25°C
[2] = target: T2, cynomolgus IL-2R α-subunit, recombinant …; test: SPR, receptor on CM5, 25°C
[3] = target: T3, human IL-2R α-subunit, monomeric, with …; test: SPR, receptor on CM5, 25°C
human FAP-His = target: T5, human FAP-His (human, UniProt Q12884 27-760); test: SPR bridging: construct captured on immobilized human IL-2R βγ, human FAP analyte, 1:1 fit, 25°C
T5 construct: also called Hu FAP; His-tagged human FAP; not shown: His tag

[4] = target: T6, human FAP expressed on stably transfected HEK293 cells (human, UniProt Q12884 1-760); test: FACS on FAP-expressing HEK cells
T6 construct: whole, on cells
Procedure: (§1) Briefly, 250 000 cells per well were incubated with the indicated concentration of the immunoconjugates in a round-bottom 96-well plate, incubated for 30 min at 4° C., and washed once with PBS/0.1% BSA.

[5] = target: T7, human DPPIV on transfected HEK 293 cells (human, UniProt P27487 1-766); test: FACS on HEK 293-human DPPIV cells, with HEK mock-transfected cells, cells only and sec. antibody as controls; concentration not shown
T7 construct: whole, on cells; also called CD26

[6] = target: T4, murine IL-2R βγ heterodimer (β knob γ …); test: SPR, receptor on CM5, 37°C, 1:1 fit
[7] = target: T8, human IL-2R βγ heterodimer, subunit-Fc knobs-into-holes fusion (human); test: SPR, receptor on CM5, 37°C, 1:1 fit
T8 construct: The entries may hold a leader peptide; also called Hu IL-2R βγ; human IL2-R β knob γ hole heterodimer

[8] = target: T9, cynomolgus IL-2R βγ heterodimer (β knob γ hole Fc fusion) (cynomolgus); test: SPR, receptor on CM5, 37°C, 1:1 fit
T9 construct: also called Cyno IL-2R βγ

[9] = target: FAP on GM05389 fibroblasts; test: FACS on GM05389 fibroblasts, surface-bound construct detected with secondary antibody after the times shown (internalization analysis); concentration not shown
[10] = target: T4, murine IL-2R βγ heterodimer (β knob γ …); test: SPR, receptor on CM5, 25°C, 1:1 fit
[11] = target: T8, human IL-2R βγ heterodimer, subunit-Fc …; test: SPR, receptor on CM5, 25°C, 1:1 fit
[12] = target: T9, cynomolgus IL-2R βγ heterodimer (β knob …); test: SPR, receptor on CM5, 25°C, 1:1 fit
[13] = target: T6, human FAP expressed on stably …; test: FACS on HEK 293-human FAP cells, median fluorescence against concentration
Procedure: as §1

[14] = target: T8, human IL-2R βγ heterodimer, subunit-Fc …; test: SPR, receptor on CM5, 25°C, kinetic
Procedure: (§2) Analyte concentration was 300 nM down to 0.4 nM (1:3 dil.) for IL-2R βγ at a flow of 30 p/min (association time 180 s, dissociation time 300 s). Regeneration was done for 2×30 s with 3M MgCl₂ for IL-2R βγ. Data were fitted using a 1:1 binding, RI≠0, Rmax=local for IL-2R βγ.
(§3) Regeneration was done for 10 s with 50 mM NaOH for IL-2R α. Data were fitted using a 1:1 binding, RI=0, Rmax-global for IL-2R α.

[15] = target: T3, human IL-2R α-subunit, monomeric, with …; test: SPR, receptor on CM5, 25°C, kinetic
Procedure: as §2, §3

binding result [1] | binding result [2] | binding result [3] | Kd (human FAP-His) [nM] | EC50 [4] [nM] | binding result [5] | Kd [6] | Kd [7] | Kd [8] | binding result [9] | Kd [10] | Kd [11] | Kd [12] | EC50 (read off the curve) [13] [nM] | Kd [14] | binding result [15] | Binder
no binding (tested: 25 nM) | no binding (tested: 25 nM) | no binding (tested: 25 nM) | 0.89 | 0.85 | no binding | 44 nM and 42 nM | 13.1 nM and 13 nM | 16.7 nM and 18.1 nM | binds | 60 nM and 63 nM | 12 nM and 7.4 nM | 7.8 nM and 8.4 nM | ~20 | – | – | 29B11 Fab-IL-2 qm-Fab (other, Fab-IL-2-Fab immunoconjugate against FAP with quadruple mutant IL-2) EVQLLESGGGLVQPGGSLRLSCAASGFTFSSYAMSWVRQAPGKGLEWVSAIIGSGGITYYADSVKGRFTISRDNSKNTLYLQMNSLRAEDTAVYYCAKGWFGGFNYWGQGTLVTVSSASTKGPSVFPLAPSSKSTSGGTAALGCLVKDYFPEPVTVSWNSGALTSGVHTFPAVLQSSGLYSLSSVVTVPSSSLGTQTYICNVNHKPSNTKVDKKVEPKSCDSGGGGSGGGGSGGGGAPASSSTKKTQLQLEHLLLDLQMILNGINNYKNPKLTRMLTAKFAMPKKATELKHLQCLEEELKPLEEVLNGAQSKNFHLRPRDLISNINVIVLELKGSETTFMCEYADETATIVEFLNRWITFAQSIISTLTSGGGGSGGGGSGGGGEVQLLESGGGLVQPGGSLRLSCAASGFTFSSYAMSWVRQAPGKGLEWVSAIIGSGGITYYADSVKGRFTISRDNSKNTLYLQMNSLRAEDTAVYYCAKGWFGGFNYWGQGTLVTVSSASTKGPSVFPLAPSSKSTSGGTAALGCLVKDYFPEPVTVSWNSGALTSGVHTFPAVLQSSGLYSLSSVVTVPSSSLGTQTYICNVNHKPSNTKVDKKVEPKSCD light: EIVLTQSPGTLSLSPGERATLSCRASQSVTSSYLAWYQQKPGQAPRLLINVGSRRATGIPDRFSGSGSGTDFTLTISRLEPEDFAVYYCQQGIMLPPTFGQGTKVEIKRTVAAPSVFIFPPSDEQLKSGTASVVCLLNNFYPREAKVQWKVDNALQSGNSQESVTEQDSKDSTYSLSSTLTLSKADYEKHKVYACEVTHQGLSSPVTKSFNRGEC
– | – | – | – | – | – | – | – | – | – | – | – | – | – | 7.3 nM and 10.7 nM | no binding (tested: 33.3 nM) | MHLG1-KV9 Fab-IL-2 qm-Fab (other, Fab-IL-2-Fab immunoconjugate against MCSP with quadruple mutant IL-2; also called MHLG1 KV9 MCSP-targeted Fab-IL2QM-Fab) EVQLVESGGGLVKPGGSLRLSCAASGFTFSNYWMNWVRQAPGKGLEWVAEIRLKSNNFGRYYAASVKGRFTISRDDSKNTLYLQMNSLKTEDTAVYYCTTYGNYVGHYFDHWGQGTTVTVSSASTKGPSVFPLAPSSKSTSGGTAALGCLVKDYFPEPVTVSWNSGALTSGVHTFPAVLQSSGLYSLSSVVTVPSSSLGTQTYICNVNHKPSNTKVDKKVEPKSCDSGGGGSGGGGSGGGGAPASSSTKKTQLQLEHLLLDLQMILNGINNYKNPKLTRMLTAKFAMPKKATELKHLQCLEEELKPLEEVLNGAQSKNFHLRPRDLISNINVIVLELKGSETTFMCEYADETATIVEFLNRWITFAQSIISTLTSGGGGSGGGGSGGGGEVQLVESGGGLVKPGGSLRLSCAASGFTFSNYWMNWVRQAPGKGLEWVAEIRLKSNNFGRYYAASVKGRFTISRDDSKNTLYLQMNSLKTEDTAVYYCTTYGNYVGHYFDHWGQGTTVTVSSASTKGPSVFPLAPSSKSTSGGTAALGCLVKDYFPEPVTVSWNSGALTSGVHTFPAVLQSSGLYSLSSVVTVPSSSLGTQTYICNVNHKPSNTKVDKKVEPKSCD light: DIQLTQSPSFLSASVGDRVTITCKASQNVDTNVAWYQQKPGQAPRPLIYSASYRYTGVPSRFSGSGSGTEFTLTISSLQPEDFATYYCQQYNSYPLTFGGGTKVEIKRTVAAPSVFIFPPSDEQLKSGTASVVCLLNNFYPREAKVQWKVDNALQSGNSQESVTEQDSKDSTYSLSSTLTLSKADYEKHKVYACEVTHQGLSSPVTKSFNRGEC
